Source: the supplement of paper PMC6757056
± gives the standard deviation of the averaged measurements.

B1: library; a variant is named by its letters at N, in order (parent)
chain: GCUGUCACCGGUGUAUUACCCUAGUGGUCGACCGGUCUGAUGAGUCUNNNNNNAGACGAAACAGC

Experiments:
hypoxanthine [1] = variants of: B1; assay: FACS-Seq fitted mean relative fluorescence mCherry/BFP without ligand (log10 relative fluorescence); ligand: hypoxanthine (xanthine aptamer); higher = higher reporter protein expression; settings: HEK293T, ligand present: no
Method in brief: (§1)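 After lentiviral transduction, HEK293T library cells bearing an mCherry ribozyme-switch reporter and an EF1α-BFP marker were enriched. They were then held for 48 h with or without ligand and sorted by mCherry/BFP into 6 bins, and each bin's genomic DNA was PCR-amplified, barcoded and MiSeq-sequenced. Fluorescence is expressed as a normalized fitted mean: the normal mean of log10(mCherry/BFP) bin counts, scaled to five spiked-in control ribozymes.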

hypoxanthine [2] = variants of: B1; assay: normalized RNA/DNA level with ligand (relative to sTRSVctl = 100) (log10 (% of sTRSVctl)); ligand: hypoxanthine (xanthine aptamer); higher = less ribozyme self-cleavage, higher mRNA level; settings: ligand concentration (+) RNA-Seq: 5 mM, HEK293T, reporter: mCherry (pCS4076), ligand present: yes
Method in brief: (§2)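 RNA level was computed as RNA reads over DNA reads divided by a spiked-in non-cleaving sequence or by the top sequences, then scaled and log-transformed. Scaling was ×100 with log10, the top group was 25 sequences, and the threshold was ≥100 DNA reads. The reads came from HEK293T cells transfected at 4 µg per 6-well well with ribozyme switch library plasmids (mCherry, or eGFP in some ligand experiments). Total RNA was extracted with EDTA 72 h after transfection, with any ligand added 1 h before it.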

hypoxanthine [3] = variants of: B1; assay: normalized RNA/DNA level without ligand (relative to sTRSVctl = 100) (log10 (% of sTRSVctl)); ligand: hypoxanthine (xanthine aptamer); higher = less ribozyme self-cleavage, higher mRNA level; settings: HEK293T, reporter: mCherry (pCS4076), ligand present: no
Method in brief: as §2

hypoxanthine [4] = variants of: B1; assay: FACS-Seq fitted mean relative fluorescence mCherry/BFP with ligand (log10 relative fluorescence); ligand: hypoxanthine (xanthine aptamer); ligand concentration (+) FACS-Seq: 5 mM; higher = higher reporter protein expression; settings: HEK293T, ligand present: yes
Method in brief: as §1

Row | Variant | FACS-Seq fitted mean (log10) (hypoxanthine [1]) | normalized RNA/DNA level with ligand (log10) (hypoxanthine [2]) | normalized RNA/DNA level without ligand (log10) (hypoxanthine [3]) | FACS-Seq fitted mean (log10) (hypoxanthine [4])
1 | AUGAAG | -0.113 ± 0.019 | 1.73 ± 0.031 | 1.13 ± 0.053 | 0.639 ± 0.0078
2 | AUGAAU | 0.418 ± 0.023 | 1.907 ± 0.01 | 1.66 ± 0.027 | 0.644 ± 0.066
3 | UUCGCA | 0.4682 ± 0.0031 | 1.95 ± 0.051 | 1.86 ± 0.067 | 0.512 ± 0.038
4 | GUGGAA | 0.0876 ± 0.0021 | 1.88 ± 0.031 | 1.61 ± 0.0033 | -0.0768 ± 0.16
5 | GUGGAU | 0.3032 ± 0.0022 | 1.917 ± 0.019 | 1.74 ± 0.05 | 0.467 ± 0.024
6 | AUCUGG | 0.338 ± 0.0078 | 1.84 ± 0.023 | 1.426 ± 0.0099 | 0.609 ± 0.05
7 | AUCUGA | 0.724 ± 0.047 | 1.96 ± 0.049 | 1.83 ± 0.045 | 0.684 ± 0.016
8 | AUCCAA | 0.618 ± 0.059 | 1.923 ± 0.016 | 1.79 ± 0.07 | 0.708 ± 0.06
9 | AUCCAG | 0.222 ± 0.062 | 1.92 ± 0.034 | 1.55 ± 0.096 | 0.446 ± 0.052
10 | AUCCAU | 0.676 ± 0.075 | 1.96 ± 0.015 | 1.86 ± 0.032 | 0.6901 ± 0.0038
11 | AUGCCA | 0.0727 ± 0.02 | 1.91 ± 0.07 | 1.821 ± 0.018 | 0.158 ± 0.03
12 | AUGUCU | 0.305 ± 0.037 | 1.957 ± 0.019 | 1.85 ± 0.046 | 0.0818 ± 0.041
13 | AUCCCG | 0.0616 ± 0.017 | 1.86 ± 0.04 | 1.51 ± 0.11 | 0.148 ± 0.14
14 | CUGGGG | 0.345 ± 0.011 | 1.86 ± 0.05 | 1.479 ± 0.0059 | 0.484 ± 0.061
15 | CUCGGC | 0.2237 ± 0.00057 | 1.97 ± 0.12 | 1.92 ± 0.093 | 0.24 ± 0.018
16 | CUCGGG | 0.547 ± 0.055 | 1.923 ± 0.0029 | 1.657 ± 0.0028 | 0.46 ± 0.0048
17 | CUCGGU | -0.663 ± 0.081 | 1.94 ± 0.022 | 1.85 ± 0.041 | -0.785 ± 0.082
18 | GUGAGG | 0.174 ± 0.029 | 1.7 ± 0.039 | 1.2 ± 0.026 | 0.598 ± 0.051

Row | Variant | FACS-Seq fitted mean (log10) (hypoxanthine [1]) | normalized RNA/DNA level with ligand (log10) (hypoxanthine [2]) | normalized RNA/DNA level without ligand (log10) (hypoxanthine [3]) | FACS-Seq fitted mean (log10) (hypoxanthine [4])
19 | GUGAGA | -0.285 ± 0.036 | 1.86 ± 0.025 | 1.5664 ± 0.0011 | -0.146 ± 0.2
20 | GUGAGC | 0.0785 ± 0.015 | 1.731 ± 0.017 | 1.15 ± 0.016 | 0.6585 ± 0.0046
21 | UUGAGG | 0.402 ± 0.054 | 1.98 ± 0.027 | 1.7199 ± 0.00097 | 0.578 ± 0.02
22 | UUGAGA | 0.452 ± 0.082 | 1.96 ± 0.015 | 1.53 ± 0.067 | 0.649 ± 0.057
23 | UUGAGC | 0.0741 ± 0.098 | 1.977 ± 0.003 | 1.89 ± 0.025 | 0.129 ± 0.018
24 | CUGACC | 0.127 ± 0.042 | 1.99 ± 0.037 | 1.91 ± 0.026 | 0.416 ± 0.008
25 | CUGACA | 0.453 ± 0.025 | 1.89 ± 0.0074 | 1.821 ± 0.017 | 0.522 ± 0.12
26 | UUGUAU | -0.614 ± 0.05 | 1.94 ± 0.077 | 1.93 ± 0.026 | -0.338 ± 0.072
27 | CUCGAU | 0.5204 ± 0.0026 | 1.93 ± 0.017 | 1.83 ± 0.081 | 0.642 ± 0.061
28 | CUCGAA | 0.449 ± 0.073 | 1.92 ± 0.068 | 1.75 ± 0.037 | 0.395 ± 0.041
29 | CUCCAU | -0.247 ± 0.08 | 1.96 ± 0.023 | 1.8932 ± 0.0013 | 0.134 ± 0.038
30 | UUGAAG | 0.35 ± 0.06 | 1.93 ± 0.077 | 1.64 ± 0.059 | 0.6894 ± 0.0024
31 | UUGAAA | 0.426 ± 0.1 | 1.953 ± 0.0063 | 1.77 ± 0.044 | 0.614 ± 0.07
32 | CUGAAG | 0.454 ± 0.056 | 1.92 ± 0.045 | 1.59 ± 0.032 | 0.669 ± 0.026
33 | CUGAAA | 0.56 ± 0.015 | 1.93 ± 0.027 | 1.74 ± 0.018 | 0.587 ± 0.036
34 | GUGUCG | 0.585 ± 0.017 | 1.86 ± 0.034 | 1.604 ± 0.0026 | 0.628 ± 0.037
35 | AUGGUG | -0.243 ± 0.17 | 1.79 ± 0.062 | 1.331 ± 0.0014 | 0.0458 ± 0.031
36 | AUGGUA | 0.303 ± 0.033 | 1.86 ± 0.045 | 1.73 ± 0.048 | 0.304 ± 0.016
